In US20130156706A1 (BRACCO SUISSE S A, published 2013):
Each block holds one binder with its values, some of them ahead of it.

Target: T1, mouse Fc P-Selectin (CD62P-Fc Chimera, from R&D Systems) (mouse, UniProt Q01102 42-709)
T1 construct: Bought reagent, coated in the flow chamber; also called mouse P-selectin; not shown: Fc part of the commercial chimera
T1 sequence (looked up): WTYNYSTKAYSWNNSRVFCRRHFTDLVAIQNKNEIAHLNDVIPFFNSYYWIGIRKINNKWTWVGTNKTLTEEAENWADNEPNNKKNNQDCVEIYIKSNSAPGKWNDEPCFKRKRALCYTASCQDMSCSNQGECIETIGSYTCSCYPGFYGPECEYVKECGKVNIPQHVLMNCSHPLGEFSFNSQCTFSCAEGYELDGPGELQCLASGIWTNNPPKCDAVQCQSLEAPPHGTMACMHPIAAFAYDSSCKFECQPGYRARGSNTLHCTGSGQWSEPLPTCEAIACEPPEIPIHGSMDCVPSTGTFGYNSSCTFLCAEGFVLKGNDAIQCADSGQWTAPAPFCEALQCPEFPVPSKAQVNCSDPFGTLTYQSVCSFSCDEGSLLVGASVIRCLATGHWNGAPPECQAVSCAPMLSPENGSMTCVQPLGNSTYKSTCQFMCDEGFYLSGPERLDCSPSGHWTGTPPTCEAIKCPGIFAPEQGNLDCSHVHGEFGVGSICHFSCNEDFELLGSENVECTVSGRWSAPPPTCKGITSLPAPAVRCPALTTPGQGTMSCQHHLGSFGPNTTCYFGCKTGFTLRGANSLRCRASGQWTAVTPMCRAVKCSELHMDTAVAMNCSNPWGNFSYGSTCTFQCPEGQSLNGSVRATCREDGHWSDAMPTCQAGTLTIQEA
Experiment: flow chamber adhesion of microvesicles on a mouse P-selectin-Fc coating
Procedure: To test the effective binding, targeted microvesicles prepared according to comparative example 4 were injected in a flow chamber set up comprising a coating of mouse Fc P-Selectin (CD62P-Fc Chimera, from R&D Systems (Minneapolis, Minn., USA). Microvesicles (at equivalent number of 80×10⁶/400 μL TBS++) were injected through the flow chamber (FCS2, Bioptech, USA) in a bolus fashion and their adhesion onto the mouse P-selectin coating layer was assessed over a period of 10 min at a flow rate of 1.0 mL/min (shear rate of 714 s⁻¹) in the presence of 50% human plasma in PBS (v:v, Biomeda collected on citrate, ref. ES1020P, Stehelin & Cie AG). A quantitative analysis of microvesicles accumulation was performed by counting the number of microvesicles adhering in the observed area at 2 min intervals over the total 10 min infusion, using the image processing program Analysis FIVE (SIS, Germany). After 10 min, five pictures were taken randomly and the number of bound microvesicles was measured and expressed as the number of bound bubbles at 10 min (NBB). Each observed area was 183×137 μm, as measured with the aid of a stage micrometer. Measurement was performed between the middle and the exit of the chamber.
Similarly, suspensions of targeted microvesicles prepared according to example 6 (Fr-1 targeting ligand) and according to example 8 (monomeric FR-1) were injected in a flow chamber as described above, and their binding activity determined according to the above procedure.

binding result: binds
B1: Fr-1, purified fragment of rPSGL-Ig (SEQ ID NO:3), dimeric, thiolated and bound to DSPE-PEG-maleimide on gas-filled microvesicles (Example 6) (other)
chain: QATEYEYLDYDFLPETEPPEMLRNSTDTTPLTGPGTPESTTVEPAARPHTCPPCPAPEALGAPSVFLFPPK
modifications: glycosylated (fragment of glycosylated rPSGL-Ig); thiolated with SATA and deacetylated, then coupled to DSPE-PEG-maleimide of the microvesicle envelope
notes: Disulfide-linked homodimer, about 32 kDa by MALDI-ToF; also called dimeric Fr-1

binding result: binds
B2: Monomeric Fr-1 (Fr-1 of SEQ ID NO:3 reduced with TCEP) bound to DSPE-PEG-maleimide on gas-filled microvesicles (Example 8) (other)
chain: B1 chain
modifications: glycosylated (fragment of glycosylated rPSGL-Ig); disulfide bonds reduced with TCEP, free cysteine thiols coupled to DSPE-PEG-maleimide of the microvesicle envelope
notes: also called reduced monomeric Fr-1

binding result: binds
B3: rPSGL-Ig (glycosylated SEQ ID NO: 4), thiolated and bound to DSPE-PEG-maleimide on gas-filled microvesicles (Example 4) (Fc fusion)
chain: QATEYEYLDYDFLPETEPPEMLRNSTDTTPLTGPGTPESTTVEPAARPHTCPPCPAPEALGAPSVFLFPPKPKDTLMISRTPEVTCVVVDVSHEDPEVKFNWYVDGVEVHNAKTKPREEQYNSTYRVVSVLTVLHQDWLNGKEYKCKVSNKALPVPIEKTISKAKGQPREPQVYTLPPSREEMTKNQVSLTCLVKGFYPSDIAVEWESNGQPENNYKTTPPVLDSDGSFFLYSKLTVDKSRWQQGNVFSCSVMHEALHNHYTQKSLSLSPGK
modifications: glycosylated; amino groups thiolated with Traut reagent (2-iminothiolane) and coupled to DSPE-PEG-maleimide of the microvesicle envelope
notes: also called recombinant PSGL-Ig; dimPSGL-1
